Reference: PMC314469, “Protein Interaction Networks by Proteome Peptide Scanning” (PLoS Biology, 2004)
Blank lines part the entries; values can stand above or below the binder they belong to.

Experiments:
[1] = target: endophilin SH3 (SH3G2_HUMAN), Q99962; assay: SPOT array
[2] = target: T1, amphyphisin SH3 (AMPH_HUMAN), P49418; assay: SPOT array
T1 chain: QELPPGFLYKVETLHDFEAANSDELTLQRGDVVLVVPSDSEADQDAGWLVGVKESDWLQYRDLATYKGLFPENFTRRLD

normalised SPOT signal, Boehringer light units (BLU); mean over the file's lines of this peptide [1]: 2280 | normalised SPOT signal, Boehringer light units (BLU); mean over the file's lines of this peptide [2]: 160
B1: Q9NR56 294-307 (peptide)
chain: LPPLPKRPALEKTN

normalised SPOT signal, Boehringer light units (BLU); mean over the file's lines of this peptide [1]: 12.8 | normalised SPOT signal, Boehringer light units (BLU); mean over the file's lines of this peptide [2]: 15.9
B2: Q96M07 127-140 (peptide)
chain: LPKHLRRPEPSKPQ

normalised SPOT signal, Boehringer light units (BLU); mean over the file's lines of this peptide [1]: 8510 | normalised SPOT signal, Boehringer light units (BLU); mean over the file's lines of this peptide [2]: 2320
B3: Q9P0P4 137-151 (peptide)
chain: LPLPPPRPPLLSAR

normalised SPOT signal, Boehringer light units (BLU); mean over the file's lines of this peptide [1]: 820 | normalised SPOT signal, Boehringer light units (BLU); mean over the file's lines of this peptide [2]: 307
B4: Q14957 973-987 (peptide)
chain: APQPPGRPPTPGPP

normalised SPOT signal, Boehringer light units (BLU); mean over the file's lines of this peptide [1]: 1020 | normalised SPOT signal, Boehringer light units (BLU); mean over the file's lines of this peptide [2]: 450
B5: P39191 481-494 (peptide)
chain: LMIHPPRPPKVLGL

normalised SPOT signal, Boehringer light units (BLU); mean over the file's lines of this peptide [1]: 1060 | normalised SPOT signal, Boehringer light units (BLU); mean over the file's lines of this peptide [2]: 6760
B6: Q9UKL1 106-119 (peptide)
chain: LPIAFIRPFREHHI

normalised SPOT signal, Boehringer light units (BLU); mean over the file's lines of this peptide [1]: 24000 | normalised SPOT signal, Boehringer light units (BLU); mean over the file's lines of this peptide [2]: 15300
B7: Q9UKB5 52-66 (peptide)
chain: LPRSPPRPPRLWSF

normalised SPOT signal, Boehringer light units (BLU); mean over the file's lines of this peptide [1]: 48.5 | normalised SPOT signal, Boehringer light units (BLU); mean over the file's lines of this peptide [2]: 84.3
B8: Q96QS4 5-18 (peptide)
chain: LQFRIRRPRPPARG

normalised SPOT signal, Boehringer light units (BLU); mean over the file's lines of this peptide [1]: 79 | normalised SPOT signal, Boehringer light units (BLU); mean over the file's lines of this peptide [2]: 261
B9: P42694 1701-1715 (peptide)
chain: LPPLPHRPPQNPFV

normalised SPOT signal, Boehringer light units (BLU); mean over the file's lines of this peptide [1]: 6910 | normalised SPOT signal, Boehringer light units (BLU); mean over the file's lines of this peptide [2]: 10700
B10: Q13545 30-43 (peptide)
chain: LPARPRRPTPTMVP

normalised SPOT signal, Boehringer light units (BLU); mean over the file's lines of this peptide [1]: 272 | normalised SPOT signal, Boehringer light units (BLU); mean over the file's lines of this peptide [2]: 121
B11: Q9Y2E6 378-391 (peptide)
chain: LPVSLTRPPKLVLH

normalised SPOT signal, Boehringer light units (BLU); mean over the file's lines of this peptide [1]: 212 | normalised SPOT signal, Boehringer light units (BLU); mean over the file's lines of this peptide [2]: 71.8
B12: Q9Y648 264-277 (peptide)
chain: LNKYLSRPKRFEVA

normalised SPOT signal, Boehringer light units (BLU); mean over the file's lines of this peptide [1]: 14500 | normalised SPOT signal, Boehringer light units (BLU); mean over the file's lines of this peptide [2]: 1320
B13: Q9Y566 1372-1386 (peptide)
chain: APQPPPRPPSPRYE

normalised SPOT signal, Boehringer light units (BLU); mean over the file's lines of this peptide [1]: 167 | normalised SPOT signal, Boehringer light units (BLU); mean over the file's lines of this peptide [2]: 335
B14: Q9BYE8 416-429 (peptide)
chain: LMIIIARPARLLES

normalised SPOT signal, Boehringer light units (BLU); mean over the file's lines of this peptide [1]: 680 | normalised SPOT signal, Boehringer light units (BLU); mean over the file's lines of this peptide [2]: 428
B15: O95047 163-176 (peptide)
chain: LPLPFSRPQKIYHF

normalised SPOT signal, Boehringer light units (BLU); mean over the file's lines of this peptide [1]: 210 | normalised SPOT signal, Boehringer light units (BLU); mean over the file's lines of this peptide [2]: 324
B16: O43611 94-107 (peptide)
chain: LQGIFTRPSKLTRQ

normalised SPOT signal, Boehringer light units (BLU); mean over the file's lines of this peptide [1]: 210 | normalised SPOT signal, Boehringer light units (BLU); mean over the file's lines of this peptide [2]: 49.7
B17: Q9UG56 133-146 (peptide)
chain: LPHWLRRPVYSLYI

normalised SPOT signal, Boehringer light units (BLU); mean over the file's lines of this peptide [1]: 7880 | normalised SPOT signal, Boehringer light units (BLU); mean over the file's lines of this peptide [2]: 820
B18: Q9Y6F2 30-43 (peptide)
chain: LPQWPRRPGRRWPA

normalised SPOT signal, Boehringer light units (BLU); mean over the file's lines of this peptide [1]: 95.9 | normalised SPOT signal, Boehringer light units (BLU); mean over the file's lines of this peptide [2]: 75.1
B19: Q9Y4U3 288-301 (peptide)
chain: LPPDIERPYKAEPL

normalised SPOT signal, Boehringer light units (BLU); mean over the file's lines of this peptide [1]: 99 | normalised SPOT signal, Boehringer light units (BLU); mean over the file's lines of this peptide [2]: 41.1
B20: P36888 164-177 (peptide)
chain: LLYTLRRPYFRKME

normalised SPOT signal, Boehringer light units (BLU); mean over the file's lines of this peptide [1]: 329 | normalised SPOT signal, Boehringer light units (BLU); mean over the file's lines of this peptide [2]: 371
B21: Q96LS1 115-128 (peptide)
chain: LQPRPRRPREAADT

normalised SPOT signal, Boehringer light units (BLU); mean over the file's lines of this peptide [1]: 220 | normalised SPOT signal, Boehringer light units (BLU); mean over the file's lines of this peptide [2]: 2180
B22: O95125 124-137 (peptide)
chain: LQKQPRRPRRWVTV

normalised SPOT signal, Boehringer light units (BLU); mean over the file's lines of this peptide [1]: 57.1 | normalised SPOT signal, Boehringer light units (BLU); mean over the file's lines of this peptide [2]: 39.6
B23: Q9NVI4 527-541 (peptide)
chain: LPEVPEKPPAGESV

normalised SPOT signal, Boehringer light units (BLU); mean over the file's lines of this peptide [1]: 40.7 | normalised SPOT signal, Boehringer light units (BLU); mean over the file's lines of this peptide [2]: 20.2
B24: Q9H8X4 102-115 (peptide)
chain: LPENFRRPQTDQAV

normalised SPOT signal, Boehringer light units (BLU); mean over the file's lines of this peptide [1]: 73.2 | normalised SPOT signal, Boehringer light units (BLU); mean over the file's lines of this peptide [2]: 16.4
B25: P78346 133-146 (peptide)
chain: LPFYFKRPPINVAI

normalised SPOT signal, Boehringer light units (BLU); mean over the file's lines of this peptide [1]: 62.4 | normalised SPOT signal, Boehringer light units (BLU); mean over the file's lines of this peptide [2]: 38
B26: Q9NXY3 388-402 (peptide)
chain: LQLGPSRPPTGEAL

normalised SPOT signal, Boehringer light units (BLU); mean over the file's lines of this peptide [1]: 3620 | normalised SPOT signal, Boehringer light units (BLU); mean over the file's lines of this peptide [2]: 1580
B27: O95098 58-72 (peptide)
chain: LPLPPARPPVLHSS

normalised SPOT signal, Boehringer light units (BLU); mean over the file's lines of this peptide [1]: 21.1 | normalised SPOT signal, Boehringer light units (BLU); mean over the file's lines of this peptide [2]: 26.4
B28: O94766 54-67 (peptide)
chain: LQAELRRPPPAPAQ

normalised SPOT signal, Boehringer light units (BLU); mean over the file's lines of this peptide [1]: 309 | normalised SPOT signal, Boehringer light units (BLU); mean over the file's lines of this peptide [2]: 39.2
B29: Q14700 527-540 (peptide)
chain: APPVLKRPILQSLL

normalised SPOT signal, Boehringer light units (BLU); mean over the file's lines of this peptide [1]: 41.8 | normalised SPOT signal, Boehringer light units (BLU); mean over the file's lines of this peptide [2]: 28.9
B30: Q9NVU6 531-544 (peptide)
chain: LQRRLKRPETPTHD

normalised SPOT signal, Boehringer light units (BLU); mean over the file's lines of this peptide [1]: 62.4 | normalised SPOT signal, Boehringer light units (BLU); mean over the file's lines of this peptide [2]: 1190
B31: P35573 181-194 (peptide)
chain: LNPDFSRPNRKYTW

normalised SPOT signal, Boehringer light units (BLU); mean over the file's lines of this peptide [1]: 44.5 | normalised SPOT signal, Boehringer light units (BLU); mean over the file's lines of this peptide [2]: 19.2
B32: Q9P006 57-70 (peptide)
chain: LPGEPRRPAEIYHS

normalised SPOT signal, Boehringer light units (BLU); mean over the file's lines of this peptide [1]: 207 | normalised SPOT signal, Boehringer light units (BLU); mean over the file's lines of this peptide [2]: 6720
B33: Q9NQA3 32-45 (peptide)
chain: LNRGPSRPRRQAGR

normalised SPOT signal, Boehringer light units (BLU); mean over the file's lines of this peptide [1]: 150 | normalised SPOT signal, Boehringer light units (BLU); mean over the file's lines of this peptide [2]: 102
B34: P22460 81-94 (peptide)
chain: LPEELPRPRRPPPE

normalised SPOT signal, Boehringer light units (BLU); mean over the file's lines of this peptide [1]: 205 | normalised SPOT signal, Boehringer light units (BLU); mean over the file's lines of this peptide [2]: 702
B35: Q9HAH7 279-292 (peptide)
chain: APPRLARPPRFYEA

normalised SPOT signal, Boehringer light units (BLU); mean over the file's lines of this peptide [1]: 222 | normalised SPOT signal, Boehringer light units (BLU); mean over the file's lines of this peptide [2]: 412
B36: Q15653 147-160 (peptide)
chain: LQPRPRRPREAPDT

normalised SPOT signal, Boehringer light units (BLU); mean over the file's lines of this peptide [1]: 17.6 | normalised SPOT signal, Boehringer light units (BLU); mean over the file's lines of this peptide [2]: 23.1
B37: Q9UJL8 67-80 (peptide)
chain: LPETFRRPQIDPAV

normalised SPOT signal, Boehringer light units (BLU); mean over the file's lines of this peptide [1]: 123 | normalised SPOT signal, Boehringer light units (BLU); mean over the file's lines of this peptide [2]: 4090
B38: P18627 187-200 (peptide)
chain: LNSSFSRPDRPASV

normalised SPOT signal, Boehringer light units (BLU); mean over the file's lines of this peptide [1]: 104 | normalised SPOT signal, Boehringer light units (BLU); mean over the file's lines of this peptide [2]: 207
B39: Q12946 84-97 (peptide)
chain: LPKGLGRPGKGHYW

normalised SPOT signal, Boehringer light units (BLU); mean over the file's lines of this peptide [1]: 194 | normalised SPOT signal, Boehringer light units (BLU); mean over the file's lines of this peptide [2]: 41.9
B40: Q9H3P5 284-297 (peptide)
chain: LQRQLKRPRPVILD

normalised SPOT signal, Boehringer light units (BLU); mean over the file's lines of this peptide [1]: 77.6 | normalised SPOT signal, Boehringer light units (BLU); mean over the file's lines of this peptide [2]: 41.3
B41: O15399 900-914 (peptide)
chain: AAPPPAKPPPPPQP

normalised SPOT signal, Boehringer light units (BLU); mean over the file's lines of this peptide [1]: 4260 | normalised SPOT signal, Boehringer light units (BLU); mean over the file's lines of this peptide [2]: 215
B42: O60885 879-893 (peptide)
chain: LPPKPARPPAVSPA
